The values that follow come from patent US6565869 (ISTITUTO DI RICERCHE DI BIOLOGIA MOLECOLARE P ANGELETTI S P …, dated 2003).

Substitutions are numbered along the chain they refer to.

T1: CNTF receptor-α (CNTFRα) (UniProt P26992 23-342, limits assumed)
T1 construct: also called CNTFRa; CNTF a-receptor
T1 sequence (looked up): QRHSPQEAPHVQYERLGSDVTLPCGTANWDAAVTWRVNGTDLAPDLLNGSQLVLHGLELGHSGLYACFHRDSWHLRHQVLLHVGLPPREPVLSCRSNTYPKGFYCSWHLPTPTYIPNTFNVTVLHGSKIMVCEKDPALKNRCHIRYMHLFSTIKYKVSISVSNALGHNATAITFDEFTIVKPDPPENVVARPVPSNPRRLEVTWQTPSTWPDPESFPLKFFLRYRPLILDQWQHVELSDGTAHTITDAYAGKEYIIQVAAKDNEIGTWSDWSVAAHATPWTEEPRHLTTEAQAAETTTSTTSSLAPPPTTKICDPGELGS

B1: hCNTF (human ciliary neurotrophic factor), wild type (ligand)
chain: MAFTEHSPLTPHRRDLCSRSIWLARKIRSDLTALTESYVKHQGLNKNINLDSADGMPVASTDQWSELTEAERLQENLQAYRTFHVLLARLLEDQQVHFTPTEGDFHQAIHTLLLQVAAFAYQIEELMILLEYKIPRNEADGMPINVGDGGLFEKKLWGLKVLQELSQWTVRSIHDLRFISSHQTGIPARGSHYIANNKKM
notes: also called human CNTF
B2: (Gln167Tyr) hCNTF (ligand)
chain: B1 chain with Q167Y
B3: (Ser166Asn/Gln167Ala) hCNTF (ligand)
chain: B1 chain with S166N, Q167A
B4: (Gln167Ala/His174Ala) hCNTF (ligand)
chain: B1 chain with Q167A, H174A
B5: (Lys160Gln/Gln167Ala) hCNTF (ligand)
chain: B1 chain with K160Q, Q167A
B6: (Gln167Ala) hCNTF (ligand)
chain: B1 chain with Q167A
B7: (Phe152Ala/Ser166Asp/Gln167His) hCNTF (ligand)
chain: B1 chain with F152A, S166D, Q167H
B8: (Ser166Gly/Gln167Ala) hCNTF (ligand)
chain: B1 chain with S166G, Q167A
B9: (Ser166Asp/Gln167His) hCNTF (ligand)
chain: B1 chain with S166D, Q167H
notes: also called DH-CNTF; DH-hCNTF
B10: (Thr169Ile/His174Ala) hCNTF (ligand)
chain: B1 chain with T169I, H174A
notes: also called (Thr169Ile/His174Ala) hCNTP
B11: (Ser166Asp/Gln167Ala/Arg177Phe) hCNTF (ligand)
chain: B1 chain with S166D, Q167A, R177F
B12: (Gln167Ala/Thr169Ser) hCNTF (ligand)
chain: B1 chain with Q167A, T169S
B13: (Gln163Ser/Gln167His) hCNTF (ligand)
chain: B1 chain with Q163S, Q167H
B14: (Ser166Ala/Gln167Ala) hCNTF (ligand)
chain: B1 chain with S166A, Q167A
B15: (Gln63Arg) hCNTF (ligand)
chain: B1 chain with Q63R
B16: (Ser166Asp/Gln167Ala) hCNTF (ligand)
chain: B1 chain with S166D, Q167A
B17: (Ser166His/Gln167Ala) hCNTF (ligand)
chain: B1 chain with S166H, Q167A
B18: (Val161Leu/Gln167Ala) hCNTF (ligand)
chain: B1 chain with V161L, Q167A
B19: (Val170Arg/His174Ala) hCNTF (ligand)
chain: B1 chain with V170R, H174A
B20: (Gln167Ala/Arg177Leu) hCNTF (ligand)
chain: B1 chain with Q167A, R177L
B21: (Lys155Ala/Ser166Asp/Gln167His) hCNTF (ligand)
chain: B1 chain with K155A, S166D, Q167H
B22: (Gln63Arg/Ser166Asp/Gln167His) hCNTF (ligand)
chain: B1 chain with Q63R, S166D, Q167H
B23: (Asp30Gln/Ser166Asp/Gln167His) hCNTF (ligand)
chain: B1 chain with D30Q, S166D, Q167H
B24: (Ser166Asp/Gln167Ala/Thr169Leu) hCNTF (ligand)
chain: B1 chain with S166D, Q167A, T169L
B25: (Lys160Gln/Gln167Thr) hCNTF (ligand)
chain: B1 chain with K160Q, Q167T
B26: (Gln167Thr) hCNTF (ligand)
chain: B1 chain with Q167T
B27: (Gln167Ala/Thr169Leu/Phe178Ile) hCNTF (ligand)
chain: B1 chain with Q167A, T169L, F178I
B28: (Gln167Ala/Thr169Leu) hCNTF (ligand)
chain: B1 chain with Q167A, T169L

This assay has as its target T1, CNTF receptor-α (CNTFRα). The assay can be described thus: solid phase binding assay on CNTFRα. The protocol:
The relative binding affinities to CNTF receptor-α (CNTFRα) of hCNTF and different hCNTF variants were determined by solid phase binding assay as previously described (10). […] These variants, like DH-CNTF, have increased utility for treatment of obesity and associated diseases, such as diabetes.
As to B1, the “Relative Binding (hCNTF = 1)” value was 1.1 relative (hCNTF = 1). Regarding B2, the “Relative Binding (hCNTF = 1)” value is 9.6 relative (hCNTF = 1). As to B3, the “Relative Binding (hCNTF = 1)” value was 12.4 relative (hCNTF = 1).

Regarding B4, the “Relative Binding (hCNTF = 1)” value is 3.6 relative (hCNTF = 1). For B5 the value was 11.7 relative (hCNTF = 1); for B6, 9 relative (hCNTF = 1). For B7 the value was 32 relative (hCNTF = 1); for B8, 7.5 relative (hCNTF = 1). The result for B9 reads 22.8 relative (hCNTF = 1); that for B10, 0.07 relative (hCNTF = 1). B11: the “Relative Binding (hCNTF = 1)” value is 13.1 relative (hCNTF = 1).

B12: the “Relative Binding (hCNTF = 1)” value was 6.9 relative (hCNTF = 1).

With B13, the “Relative Binding (hCNTF = 1)” value was 4.1 relative (hCNTF = 1). Regarding B14, the “Relative Binding (hCNTF = 1)” value was 8.1 relative (hCNTF = 1). For B15 the value was 2 relative (hCNTF = 1); for B16, 13.5 relative (hCNTF = 1); for B17, 8.8 relative (hCNTF = 1). The result for B18 reads 8.8 relative (hCNTF = 1); that for B19, 3.3 relative (hCNTF = 1). For B20 the value was 11.7 relative (hCNTF = 1). As for B21, the “Relative Binding (hCNTF = 1)” value was 51 relative (hCNTF = 1).

B22: the “Relative Binding (hCNTF = 1)” value was 66 relative (hCNTF = 1).

As to B23, the “Relative Binding (hCNTF = 1)” value is 30 relative (hCNTF = 1). The result for B24 reads 21 relative (hCNTF = 1); that for B25, 3.1 relative (hCNTF = 1). The result for B26 reads 11.8 relative (hCNTF = 1).

Regarding B27, the “Relative Binding (hCNTF = 1)” value is 8.4 relative (hCNTF = 1). The result for B28 reads 9.6 relative (hCNTF = 1).
